The text below walks through data of paper PMC5402353 (Journal of molecular biology, 2017).

In data set [1] the target is T1, hexYme1p (S. cerevisiae) (UniProt P32795).
T1 sequence: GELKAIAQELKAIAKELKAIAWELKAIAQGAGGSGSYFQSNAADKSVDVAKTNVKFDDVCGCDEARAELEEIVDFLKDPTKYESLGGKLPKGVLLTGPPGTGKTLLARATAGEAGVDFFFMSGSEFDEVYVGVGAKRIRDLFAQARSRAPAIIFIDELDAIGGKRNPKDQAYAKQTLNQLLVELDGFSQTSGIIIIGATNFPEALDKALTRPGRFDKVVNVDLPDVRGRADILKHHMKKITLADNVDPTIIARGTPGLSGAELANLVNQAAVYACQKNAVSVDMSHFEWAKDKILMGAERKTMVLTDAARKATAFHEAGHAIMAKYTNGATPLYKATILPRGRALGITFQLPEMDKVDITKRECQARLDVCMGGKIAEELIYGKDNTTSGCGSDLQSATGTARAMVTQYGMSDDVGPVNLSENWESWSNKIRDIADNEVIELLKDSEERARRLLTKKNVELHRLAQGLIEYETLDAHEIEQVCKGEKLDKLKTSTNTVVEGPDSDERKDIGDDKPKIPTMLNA

Data set [2] deals with the molecule itself. The data set can be described thus: SEC. In general terms: In gel filtration, larger molecules generally elute earlier.
Data set [3] concerns the target T1, hexYme1p (S. cerevisiae). The source holds these as a separate data set.

Substitutions are numbered along the chain they refer to. Names may count otherwise. Where two headings read alike, the source gives them in different places.

For the molecule T9-λcI^N (from UniProt O74700 1-8), the initial rate of degradation of 20 μM substrate by hexYme1p (min^−1 enz6^−1) in data set [1] is 0.03. The molecule T13-λcI^N (from UniProt P53299 1-13) returned an initial rate of degradation of 20 μM substrate by hexYme1p (min^−1 enz6^−1) in data set [1] of 0.22. Same read-out and setting: next, T12-λcI^N (from UniProt P32830 1-15): 0.33; T10-λcI^N (from UniProt P87108 1-15): 0.7.

B1: hexYme1p (enzyme, S. cerevisiae)
chain: T1 sequence
Broadly, the stoichiometry N is a count of units in the complex or per binding partner. Consider B1, for which the “stoichiometry N” value in data set [2] was 6.

B2: Tim9^D2F (natural protein)
chain: MFALNSKEQQEFQKVVEQKQMKDFMRLYSNLVERCFTDCVNDFTTSKLTNKEQTCIMKCSEKFLKHSERVGQRFQEQNAALGQGLGR
In turn, B2 gave an initial rate of degradation by hexYme1p, without DTT (min^−1 enz6^−1) in data set [3] of 0.16.

B3: Tim13^3–7A (natural protein)
chain: MGAAAAAGGGAPSQQKEAATTAKTTPNPIAKELKNQIAQELAVANATELVNKISENCFEKCLTSPYATRNDACIDQCLAKYMRSWNVISKAYISRIQNASASGEI
B3: in data set [1], the initial rate of degradation by hexYme1p, without DTT (min^−1 enz6^−1) came to 0.05.

B4: Tim10^2–6A (natural protein)
chain: MAAAAAGGGQPQLSSQQKIQAAEAELDLVTDMFNKLVNNCYKKCINTSYSEGELNKNESSCLDRCVAKYFETNVQVGENMQKMGQSFNAAGKF
In data set [3], B4 displayed an initial rate of degradation by hexYme1p (min^−1 enz6^−1) of 0.05.

B5: Tim10^F-alone (natural protein)
chain: B4 chain with A3F, A6F, G7A
As to B5, the initial rate of degradation by hexYme1p (min^−1 enz6^−1) in data set [3] is 0.43.

B6: Tim10^F3A/F6A (natural protein)
chain: B4 chain with A2S, A4L, A5G
With B6, the initial rate of degradation by hexYme1p (min^−1 enz6^−1) in data set [3] is 0.11.
